Laboratory results published in paper PMC2970701 (DNA repair, 2010).

Target: S. cerevisiae ubiquitin (S. cerevisiae, UniProt P0CG63 1-76)
Experiment: NMR titration

Sequence of S. cerevisiae ubiquitin (P0CG63 1-76): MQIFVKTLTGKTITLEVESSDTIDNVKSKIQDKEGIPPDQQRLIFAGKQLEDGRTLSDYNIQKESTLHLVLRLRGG

B1: UBZ domain of S. cerevisiae polymerase η (domain or fragment)
chain: TTSSKADEKTPKLECCKYQVTFTDQKALQEHADYHLALKLSEGLNGAEESSKNLSFGEKRLLF
- binding result: binds
